The values that follow come from patent publication US7109299 (dated 2006).

Bridge positions count the residues as written; N and C are the ends. Square brackets hold non-standard residues; d marks the D form. Ends that are not written are not given here. Dap = NC[C@H](N)C(=O)O; Ahx = NCCCCCC(=O)O

T1: native IL-5R α/β complex on cells (TF-1 cells; human eosinophils) (human, UniProt Q01344 21-420; P32927 17-897)
T1 sequence (looked up) 1: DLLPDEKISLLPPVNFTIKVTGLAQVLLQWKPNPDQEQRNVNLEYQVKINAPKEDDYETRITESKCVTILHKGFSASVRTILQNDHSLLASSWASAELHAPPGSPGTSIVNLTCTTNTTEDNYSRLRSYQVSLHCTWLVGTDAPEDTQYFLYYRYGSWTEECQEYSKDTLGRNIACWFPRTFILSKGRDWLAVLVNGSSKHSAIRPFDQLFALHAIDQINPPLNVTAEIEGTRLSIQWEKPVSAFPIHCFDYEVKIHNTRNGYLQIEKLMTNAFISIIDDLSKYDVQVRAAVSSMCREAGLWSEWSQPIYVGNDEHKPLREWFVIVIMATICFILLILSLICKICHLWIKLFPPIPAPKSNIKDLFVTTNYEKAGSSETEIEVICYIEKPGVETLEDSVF
T1 sequence (looked up) 2: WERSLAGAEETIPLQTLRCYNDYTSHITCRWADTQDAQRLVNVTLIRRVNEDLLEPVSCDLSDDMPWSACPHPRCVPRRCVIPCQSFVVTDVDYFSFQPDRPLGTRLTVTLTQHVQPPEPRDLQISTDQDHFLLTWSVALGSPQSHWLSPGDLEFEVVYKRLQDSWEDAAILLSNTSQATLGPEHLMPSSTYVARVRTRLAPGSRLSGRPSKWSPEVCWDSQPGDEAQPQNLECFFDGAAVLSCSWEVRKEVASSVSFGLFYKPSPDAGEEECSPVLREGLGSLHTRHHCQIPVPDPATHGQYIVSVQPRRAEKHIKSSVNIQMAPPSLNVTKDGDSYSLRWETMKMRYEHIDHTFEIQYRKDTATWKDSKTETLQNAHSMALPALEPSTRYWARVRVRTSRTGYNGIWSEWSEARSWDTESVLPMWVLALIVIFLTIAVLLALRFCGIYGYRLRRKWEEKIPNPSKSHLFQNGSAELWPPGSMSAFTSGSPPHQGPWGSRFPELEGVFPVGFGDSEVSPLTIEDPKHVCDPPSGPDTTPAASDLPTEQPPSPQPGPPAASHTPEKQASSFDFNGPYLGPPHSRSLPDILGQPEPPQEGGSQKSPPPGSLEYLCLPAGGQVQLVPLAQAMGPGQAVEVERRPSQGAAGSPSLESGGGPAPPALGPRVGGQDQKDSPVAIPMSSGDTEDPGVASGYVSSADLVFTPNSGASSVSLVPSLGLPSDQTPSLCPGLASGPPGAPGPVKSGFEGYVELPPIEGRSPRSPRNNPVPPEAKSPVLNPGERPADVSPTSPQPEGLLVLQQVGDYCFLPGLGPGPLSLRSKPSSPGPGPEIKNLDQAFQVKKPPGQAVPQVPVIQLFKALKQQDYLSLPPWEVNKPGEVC

T2: IL-5RαECD, extracellular domain (ECD) of the human IL-5 receptor α chain, soluble (human, UniProt Q01344 21-342)
T2 construct: extracellular domain; Captured through mAb 179 (anti-HPAP tail) in the plate, SPA and bead assays; also called soluble IL-5Rα; IL-5 receptor alpha chain extracellular domain
T2 sequence (Q01344 whole entry, looked up): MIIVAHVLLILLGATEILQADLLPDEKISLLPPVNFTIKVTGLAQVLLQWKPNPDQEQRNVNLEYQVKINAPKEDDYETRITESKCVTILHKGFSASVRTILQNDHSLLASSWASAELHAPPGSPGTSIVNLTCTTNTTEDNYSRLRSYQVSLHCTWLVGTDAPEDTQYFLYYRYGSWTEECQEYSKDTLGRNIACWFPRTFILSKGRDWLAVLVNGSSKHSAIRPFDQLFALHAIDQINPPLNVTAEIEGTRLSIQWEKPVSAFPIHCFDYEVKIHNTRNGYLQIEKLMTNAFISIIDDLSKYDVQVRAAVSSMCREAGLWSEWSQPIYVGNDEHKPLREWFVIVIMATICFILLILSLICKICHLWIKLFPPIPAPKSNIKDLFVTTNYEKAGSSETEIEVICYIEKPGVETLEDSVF

B1: dimer of (H)-EGYVCVEWARCPTCG-(NH2) (peptide)
peptide: H-EGYVCVEWARCPTCG-NH2
modifications: disulfide (positions not given here); also: dimer, intramolecular and intermolecular disulfide linkages, places not given here
B2: dimer of (H)-EGYVCVEWARCPTCR-(NH2) (peptide)
peptide: H-EGYVCVEWARCPTCR-NH2
modifications: disulfide (positions not given here); also: dimer, intramolecular and intermolecular disulfide linkages, places not given here
B3: dimer of (H)-GYVCVEWARCPTCR-(OH) (peptide)
peptide: H-GYVCVEWARCPTCR-OH
modifications: disulfide (positions not given here); also: dimer, intramolecular and intermolecular disulfide linkages, places not given here
B4: dimer of (Ac)-EGYVCVEWARCPTCR-(NH2) (peptide)
peptide: Ac-EGYVCVEWARCPTCR-NH2
modifications: disulfide (positions not given here); also: dimer, intramolecular and intermolecular disulfide linkages, places not given here
B5: dimer of (Ac)-EGYVCVEWAACPTCR-(NH2) (peptide)
peptide: Ac-EGYVCVEWAACPTCR-NH2
modifications: disulfide (positions not given here); also: dimer, intramolecular and intermolecular disulfides, places not given here
B6: dimer of two chains of residues 36-50 of SEQ ID NO: 9 (structure only in drawing CHEM-US-00014) (peptide)
peptide: Ac-EGYV[Dap]VEWARCPTCR-NH2
modifications: cysteine pairing not given here; also: homodimer, link between chains only in drawing
B7: dimer of (Ac)-EGYVCVEWARCPTCK-(NH2) (peptide)
peptide: Ac-EGYVCVEWARCPTCK-NH2
modifications: disulfide (positions not given here); also: dimer, intramolecular and intermolecular disulfide linkages, places not given here
B8: dimer of (H)-EGYVCVEWARCPTCR-(OH) (peptide)
peptide: H-EGYVCVEWARCPTCR-OH
modifications: disulfide (positions not given here); also: dimer, intramolecular and intermolecular disulfide linkages, places not given here
B9: dimer of (H)-EGYVCVEWARCPTCK-(OH) (peptide)
peptide: H-EGYVCVEWARCPTCK-OH
modifications: disulfide (positions not given here); also: dimer, intramolecular and intermolecular disulfide linkages, places not given here
B10: dimer of (Ahx)-EGYVCVEWARCPTCR-(NH2) (peptide)
peptide: [Ahx]EGYVCVEWARCPTCR-NH2
modifications: disulfide (positions not given here); also: dimer, intramolecular and intermolecular disulfide linkages, places not given here
B11: dimer of (H)-GYVCVEFARCPTCG-(NH2) (peptide)
peptide: H-GYVCVEFARCPTCG-NH2
modifications: disulfide (positions not given here); also: dimer, intramolecular and intermolecular disulfide linkages, places not given here
B12: dimer of (H)-EGYVCVEFARCPTCG-(NH2) (peptide)
peptide: H-EGYVCVEFARCPTCG-NH2
modifications: disulfide (positions not given here); also: dimer, intramolecular and intermolecular disulfide linkages, places not given here
B13: dimer of (H)-EGYVCVEFARCPTCR-(OH) (peptide)
peptide: H-EGYVCVEFARCPTCR-OH
modifications: disulfide (positions not given here); also: dimer, intramolecular and intermolecular disulfide linkages, places not given here

The target in one assay is T1, native IL-5R α/β complex on cells (TF-1 …). The assay is described as follows: cell-based or functional assay.
As to B1, the “Microphysiometer pIC50 (block of the TF-1 cell response to IL-5)” value (“Microphysiometer pIC50” for short) turned out to be 9.1. With B2, the “Microphysiometer pIC50” value turned out to be 9.1. Same read-out and setting: for B3 the value was 8.4; for B4, 8.4. On to B5, for which the “Microphysiometer pIC50” value came out at 6.9. The same measure, in the same setting: to H-TGGGDGYVCVEWARCPTCK-OH (disulfide 15-18; also: homodimer via interchain Cys9-Cys9 disulfide) [AF18748, synthetic dimer of (H)-TGGGDGYVCVEWARCPTCK-(OH)] belongs 9.6; to B6, 6.5; to B7, 8.5.

On to B8, for which the “Microphysiometer pIC50” value came out at 9.6. On the same count and under the same terms, to B9 belongs 9.2; to B10, 9.

A further assay concerns the target IL-5RαECD, extracellular domain (ECD) of the human IL-5 receptor α chain, soluble (human, UniProt Q01344 21-342). The assay is described as follows: scintillation proximity competition assay, dimer against 20 pM [125I] IL-5 on IL-5Rα coated beads. The method, then:
(§1) Binding affinities of synthetic peptides for IL-5Rα were measured in a scintillation proximity assay (SPA) using radio-iodinated IL-5. Streptavidin coated SPA beads (Amersham) were suspended in IL-5 binding buffer (phosphate buffered saline, 0.1% bovine serum albumin, 0.2% NaN_3) at 2 mg beads/ml of buffer. Biotinylated mAb 179 was adsorbed onto the beads at a ratio of 2 μg Ab/mg beads by incubating the beads and antibody with agitation for at least 2 h. at 4°. The beads were pelleted at 2500 rpm and resuspended at 2 mg/ml in binding buffer. Soluble IL-5Rα was then adsorbed onto the beads by diluting a solution of soluble receptor harvest 1:500 into the bead suspension and incubating with agitation for 2 hr at 4°. The beads were again pelleted at 2500 rpm and resuspended at 2 mg/ml in binding buffer. Competition binding assays were carried out in 100 μl reactions in white polystyrene microtiter plates. […] IL-5 (Amersham). The plates were incubated at room temperature for 1 hour with agitation, then centrifuged for 5 min at 1500 rpm followed by scintillation counting on a Topcount instrument (Packard). […] IL-5 bound in the absence of any competitor. […] IL-5 bound in the presence of 30 nM IL-5. […] IL-5 binding by 50% (IC$50$). In each instance, the dimer has both intramolecular and intermolecular disulfide linkages as shown generically below: […]
Take B11: the “SPA pIC50” value was 6.1. Still for that read-out and setting: to B12 belongs 6.6; to B3, 8.2. On to B9, for which the “SPA pIC50” value worked out at 8.7.

For a further assay, the target named is T2, IL-5RαECD, extracellular domain (ECD) …. Described as above. On the procedure: as §1
For B13, the “SPA pIC50” value worked out at 6.8.

Regarding H-TGGGDGYVCVEWARCPTCK-OH (disulfide 15-18; also: homodimer via interchain Cys9-Cys9 disulfide) [AF18748, synthetic dimer of (H)-TGGGDGYVCVEWARCPTCK-(OH)], the “SPA pIC50” value stood at 9.1. On the same count and under the same terms, for B8 the value was 8.4.
